Key:
[1] = Luminescence pattern triggered by addition of calcium (luminescence plate reader Centro LB960); type: biochemical
Description: The luminescence activity of the recombinant clytin-ESNA of EXAMPLE 4 was measured as follows. After mixing 2-mercaptoethanol (1 μl) and substrate coelenterazine (1 μg/μl dissolved in ethanol) with 30 mM Tris-HCl (pH 7.6) containing 10 mM EDTA, the recombinant apoclytin-ESNA at each purification step was added to the mixture. The reaction was carried out on ice (4° C.) for 2 hours to regenerate recombinant clytin-ESNA. The luminescence reaction was triggered by adding a 50 mM calcium solution (100 μl/well) to 1 μl of this regenerated recombinant clytin-ESNA solution. The luminescence activity was measured for 10 seconds using a luminescence plate reader Centro LB960 (manufactured by Berthold) and expressed in terms of the maximum luminescence intensity (Imax).
In order to compare the luminescence properties between the recombinant clytin-ESNA (CLI-ESNA) obtained in EXAMPLE 5 and other holoproteins (aequorin (AQ)), clytin-I (CL-I), clytin-II (CL-II)) and obelin (Ob)), the luminescence patterns triggered by the addition of calcium were compared.
The luminescence patterns of CLI-ESNA, AQ, CL-I, CL-II and Ob were measured as follows. […] The luminescence reaction was initiated by adding 100 μl/well of a 50 mM calcium solution to this reconstitution solution. […]

[2] = Bioluminescence emission spectrum on addition of CaCl2 (JASCO FP-6500, excitation source off); type: physicochemical; conditions: 0.1 ml of 50 mM CaCl2 added to 1 ml of 50 mM Tris-HCl (pH 7.6), 0.02 mg protein
Description: Bioluminescence emission spectra of the recombinant clytin-ESNA obtained in EXAMPLE 4, 5) were measured in a quartz cell having a 10 mm optical path under the given conditions (band width for emission/excitation: 20 nm, response: 0.5 sec, scan speed: 2000 nm/min) using a fluorescence spectrophotometer (JASCO FP-6500) with the excitation source turned off.

B1: recombinant clytin-ESNA: Holoprotein (calcium-binding photoprotein) regenerated from recombinant apoclytin-ESNA (SEQ ID NO: 2/6) and coelenterazine (protein)
chain: VKLRPNFDNPKWVNRHKFMFNFLDINGDGKITLDEIVSKASDDICAKLGATPEQTKRHQDAVEAFFKKIGMDYGKEVEFPAFVDGWKELANYDLKLWSQNKKSLIRDWGDAVFDIFDKDGSGSISLDEWKAYGRISGICPSDEDAEKTFKHCDLDNSGKLDVDEMTRQHLGFWYTLDPTSDGLYGNFVP
modifications: coelenterazine
decay pattern of the luminescence patterns ([1]; 100 μl/well of 50 mM calcium solution, measured for 10 seconds, as compared to AQ, Cl-I, Ob): rapid decay pattern | S/N ratio ([1]; compared with Cl-I, luminescence triggered by calcium): higher S/N ratio than Cl-I | bioluminescence emission maximum wavelength [2]: 470 nm
